Laboratory results: PMC3422348

Biological target: Cdc37 (Cell division cycle protein 37) (human (endogenous in MDA-MB-453 and MDA-MB-231)) (UniProt Q16543)
Assay: co-IP; membrane fractions of MDA-MB-453 and MDA-MB-231 cells immunoprecipitated with anti-Cdc37 (18 h, 4°C, protein G-Sepharose), Western blot with anti-HSP90, anti-HER2, anti-EGFR; cells cultured in control medium or with 200 µg/ml anti-Cdc37 or 200 µg/ml mAb 4C5 for 16 h; densitometry

Chain of UniProt Q16543 (Q16543 whole entry): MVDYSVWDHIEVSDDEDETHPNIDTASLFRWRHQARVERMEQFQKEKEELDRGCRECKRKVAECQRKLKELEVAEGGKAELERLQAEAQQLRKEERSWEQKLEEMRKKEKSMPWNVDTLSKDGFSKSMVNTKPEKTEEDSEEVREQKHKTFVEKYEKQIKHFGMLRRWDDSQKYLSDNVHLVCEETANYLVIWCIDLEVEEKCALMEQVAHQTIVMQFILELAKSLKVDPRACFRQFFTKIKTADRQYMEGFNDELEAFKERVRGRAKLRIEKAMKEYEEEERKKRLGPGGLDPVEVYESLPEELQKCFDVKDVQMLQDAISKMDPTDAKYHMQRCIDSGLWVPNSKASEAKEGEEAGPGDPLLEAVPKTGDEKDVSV

percent decrease of the co-precipitate with 200 µg/ml anti-Cdc37 in the medium (MDA-MB 231): 56%
percent decrease of the co-precipitate with 200 µg/ml anti-Cdc37 in the medium (MDA-MB 453): 33%
percent decrease of the co-precipitate with 200 µg/ml mAb 4C5 in the medium (MDA-MB 231): 88%
percent decrease of the co-precipitate with 200 µg/ml mAb 4C5 in the medium (MDA-MB 453): 60%
Substance: HSP90 (from UniProt P07900 1-732) (natural protein)
